From doi:10.1101/2025.08.19.671101 (bioRxiv, 2025)

T1: 10E8-GT10.2 (synthetic construct; HIV-1 MPER helix …, N-linked glycan density at N74/75)
T1 construct: also called MPER-GT immunogen
T1 chain: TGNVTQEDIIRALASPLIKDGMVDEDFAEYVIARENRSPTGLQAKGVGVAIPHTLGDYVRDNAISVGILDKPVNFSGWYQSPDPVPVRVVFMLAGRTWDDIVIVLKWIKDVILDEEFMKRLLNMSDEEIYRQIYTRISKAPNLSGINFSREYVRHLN

T2: 10E8-GT12 (synthetic construct; HIV-1 MPER helix …, N-linked glycan density at N74/75)
T2 construct: also called MPER-GT immunogen
T2 chain: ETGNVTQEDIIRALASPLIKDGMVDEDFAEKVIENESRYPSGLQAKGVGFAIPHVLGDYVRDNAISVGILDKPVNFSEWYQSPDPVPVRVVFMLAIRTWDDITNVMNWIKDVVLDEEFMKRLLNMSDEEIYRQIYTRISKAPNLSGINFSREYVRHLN

B1: SA2102_10E8-like_2911_Fab (Fab, V domains shown)
VH: QVQLKQSGPGLVQPSQSLSITCTVSGFSLTSYGVHWVRQSPGKGLEWLGVIWSGGSTDYNAAFISRLSISKDNSKSQVFFKMNSLQADDTAIYYCARAPPYYDFWSGYSYYYYYMDVWGKGTTVTV
VL: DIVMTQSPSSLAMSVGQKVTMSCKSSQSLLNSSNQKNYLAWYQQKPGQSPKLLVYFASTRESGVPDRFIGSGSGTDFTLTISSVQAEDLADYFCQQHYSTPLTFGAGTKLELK
notes: also called SA2911; source: FreeStyle 293F cells, transfected, purified
B2: SA684_Exp1_Scaf_MPER-GT10v55_W6-03 (Fab, V domains shown)
VH: DVQLQESGPGLVKPSQSLSLTCSVTGYSITSGYYWNWIRQFPGNKLEWMGYISYDGSNNYNPSLKNRISITRDTSQNQFFLKLNSVTTEDTASYYCAREGPYYDFWSGYYAYYMDVWGKGTTVTVSS
VL: DIVMSQSPSSLAVSVGEKVTMSCKSSQSLLYSSNQKNYLAWYQQKPGQSPKLLIYWASTRKSGVPDRFTGSGSGTDFTLTISSVKAEDLAVYYCQQYFGYPLTFGAGTKLELK
notes: source: FreeStyle 293F cells, transfected, purified
B3: SA684_Exp1_Scaf_MPER-GT12v56_W6-10 (Fab, V domains shown)
VH: QVTLKESGPGILQPSQTLSLTCSFSGFSLSTFGMGVGWIRQPSGKGLEWLAHIWWDDDKFYNPALKSRLTISKDTSKNQVFLKIANVDTADTATYYCARIGEDYFLDVWGKGTTVTVSS
VL: DIQMTQSPASLSASVGETVTITCRASGNIHNYLAWYQQKQGKSPQLLVYNAKTLADGVPSRFSGSGSGTQYSLKINSLQPEDFGSYYCQHFWSAPYTFGGGTNLEIK
notes: also called off-target mouse Fab W6-10; source: FreeStyle 293F cells, transfected, purified
B4: NHP-10E8_MPER-GT10v55_W3-05 (Fab, V domains shown)
VH: EVQLVESGGGLVQPGGSLRLSCAASGFTFSNYWMSWVRQAPGKGLEWVGFIKNKADGGTAAYAESVKGRFTISRDDSKNTLYLQMNSLKTEDTAVYYCARDLGRYNFWSGFYSQNRFDVWGPGVLVTVSS
VL: SYEVTQPPSVSVSPGQMARITCGGDNLGSKYVHWYQQKPAQAPVLVIYDDSERPSGIPERFSGSKSGNTATLTISGVEAGDEADYYCQVWDSSSDHPLFGGGTRLTVL
notes: as for B2
B5: NHP-10E8_MPER-GT10v55_W3-02 (Fab, V domains shown)
VH: EVQLVESGGGLVQPGGSLKLSCAASGFTFSDHYMDWVRQAPGKGLEWVSSVSSGSGSATLYPDSVKGRFTISRDNAKNTVYLQMNSLRAEDTAVYYCARRGLYYDFWSGYSDFYYGLDSWGQGVVVTVSS
VL: DIVMTQTPLSLPITPGEPASISCRSSQSLLQSNGNTYLHWYLQKPGQSPQLLIYGGSNRASGVPDRFSGSGSGTDFTLKISKVEAEDVGVYYCVQAIAFPFTFGPGTKLDIK
notes: as for B2

How the values were obtained:
10E8-GT10.2 = target: T1, 10E8-GT10.2; assay: SPR; settings: both partners purified
10E8-GT12 = target: T2, 10E8-GT12; assay: SPR; settings: both partners purified

Binder | Kd (10E8-GT10.2) [nM] | Kd (10E8-GT12) [nM]
B1 | 787 | 534
B2 | 9 | 8.5
B3 | 3 | 1.8
B4 | 19 | 490
B5 | 7.5 | 3400
